The record followed here is article PMC8390506.

In this test the target is double-mutant TPX2 (2M-TPX2) (Xenopus laevis) (UniProt Q6NUF4). Nature of the test: BLI; Octet (ForteBio); TPX2 attached to sensors, importin concentration varied; normalized amplitudes; apparent Kd.

Sequence of importin-αΔIBB (truncated importin-α without the importin-β-binding domain) (domain or fragment) (P52170 71-522, stated change not applied): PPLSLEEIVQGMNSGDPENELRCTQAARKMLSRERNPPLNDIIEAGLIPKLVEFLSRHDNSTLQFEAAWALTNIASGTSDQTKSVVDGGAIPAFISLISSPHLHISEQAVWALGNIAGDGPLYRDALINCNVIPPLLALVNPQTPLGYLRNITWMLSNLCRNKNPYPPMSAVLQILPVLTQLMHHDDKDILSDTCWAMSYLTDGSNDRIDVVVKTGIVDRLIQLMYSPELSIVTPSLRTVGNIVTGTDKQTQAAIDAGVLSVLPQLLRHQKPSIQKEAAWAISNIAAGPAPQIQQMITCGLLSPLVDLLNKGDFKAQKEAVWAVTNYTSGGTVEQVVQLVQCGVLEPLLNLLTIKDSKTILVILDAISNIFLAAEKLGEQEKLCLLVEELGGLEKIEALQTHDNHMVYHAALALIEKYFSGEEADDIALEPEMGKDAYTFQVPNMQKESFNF

Consider “importin-αΔIBB (truncated importin-α without the importin-β-binding domain) (domain or fragment)”, for which the Kd was 0.045 µM.
